# Laboratory results reported in patent US20200223906A1 (Adimab, published 2020).
# Substitutions are numbered along the chain they refer to.
# B1: ADI-18977 (antibody, V domains shown)
# VH: QVQLVQSGTEVKKPGASVKISCKTSGYTFTNNVIQWVRQAPGQRLEWMGWISAGNGYTKYSDKFQDRVTITRDTSASTAYMEVSSLTSEDTAMYYCARQVSTSGWHATSHRFAPWGQGTLVTVSS
# VL: DIQMTQSPSSLSASVGDRVTITCQASQGISRYLNWYQQKPGKAPNLLIYDASNLETGVPSRFSGSGSGTHFTLTISSLQPEDIATYYCQQYDNLPLTFGGGTKVEIK
# notes: full-length IgG from yeast
# B2: ADI-18889 (antibody, V domains shown)
# VH: QVQLQQWGAGLWKPSQTLSLTCAVHGGSLSGYSWSWIRQSPGRGLEWIGEVNRRGTTNYNPSLKGRVSISWDTSKNQVSLSLRSVTAADTATYYCAGTNVGFVNTHNDYYFGMDVWGQGTTVTVSS
# VL: DIVMTQSPSSLSASVGDRVTITCRASQSISNYVNWYQKKTGQVPKLLIYGASNLESGVPSRFSGGGSGTDFTLTISSLQPEDFATYYCQQSYSVPLTFGGGTKVEIK
# notes: full-length IgG from yeast; also called Antibody Number 244; Ab # 244
# B3: ADI-18892 (antibody, V domains shown)
# VH: QVQLVQSGAEVKEPGASVRVSCKASGYTFTSYGISWVRQAPGQGLEWMGWISAYNGNTNYAQKFQGRVTVTTDTSTSAAYMELRSLRSDDTAIYYCARDSFSLTGAGFPDYWGQGTLVTVSS
# VL: EIVMTQSPLSLPVTLGQPASISCRSSQSLVYSDGNTYLNWFQQRPGQSPRRLIYKVSNRDSGVPDRFSGSGSDTDFTLKISRVEAEDVGVYYCMQATQWPRTFGQGTKVEIK
# notes: full-length IgG from yeast
# B4: ADI-18912 (antibody, V domains shown)
# VH: EVQLVESGGGLVKPGGALRLSCAASGFSFRSYSMNWVRQAPGKGLEWVSSISSSSNYINYADSVKGRFSISRDNAKNSLYLQMNSLRAEDTAVYYCARDLLPVERGPAFDIWGQGTMVTVSS
# VL: SYELTQPPSVSGAPGQRVTISCTGSSSNIGAGYDVHWFQQLPGAAPKLLIYANSNRPSGVPDRFSGSKSGTSASLAITGLQAEDEADYYCQSYDSRLGGSVFGGGTKVTVL
# notes: full-length IgG from yeast
# B5: ADI-18877 (antibody, V domains shown)
# VH: QVQLVQSGTEVKKPGASVKVSCKAAGYTFSNYGVSWVRQAPGQGLEWMGWISAYNGNTKFAQKVQGRLTMTTDTSTSTAYMELRNLRSDDTAVYYCARESGATAAAMFDYWGQGTLVTVSS
# VL: ETTLTQSPLSLPVTLGQPASISCRSSQSLEYSDGNIYLSWFQQRPGQSPRRLIYKVSHRDSGVPDRFSGSGSGTDFTLKIARVEAEDVAVYYCMQAIHWPRTFGQGTKVDIK
# notes: full-length IgG from yeast; also called Antibody Number 234; Ab # 234
# B6: ADI-18898 (antibody, V domains shown)
# VH: B5 VH
# VL: B5 VL with T2I, T3V, D110E
# notes: full-length IgG from yeast
# B7: ADI-18913 (antibody, V domains shown)
# VH: QVQLVQSGPEVKKPGESLTISCKGSGYDFSNNWIGWVRQMPGKGLEWMGIIYPGDSDTRYSPSFQGQVTLSVDKSISTAYLQWRSLKASDSGIYYCARQIGGLVCSSESCYFYGMDVWGQGTTVTVSS
# VL: DIQLTQSPSSLSASVGGRVTITCRASQSISNYLNWYQHKPGKAPELLIYGASSLQSGVPSRFSGSGSGTDFTLTISSLQPEDFATYYCQQSDTTPFTFGQGTKVDIK
# notes: full-length IgG from yeast
# B8: ADI-18916 (antibody, V domains shown)
# VH: B7 VH
# VL: B7 VL with Q3R, L4V, V104L, D105E
# notes: full-length IgG from yeast; also called Antibody Number 270; Ab # 270
# B9: ADI-18890 (antibody, V domains shown)
# VH: QVQLVQSGAEVKRPGSSVKVSCKASGGTFRGYHISWLRQAPGQGLEWLGGITHLFGTVSYAPKFQGRVTITADASTGTLYMVLNSLKPEDTAIYYCARDAYEVWTGSYLPPFDYWGQGTLVTVSS
# VL: ETTLTQSPGTLSLSPGERATLSCRASQTVTSNYLAWYQQKPGQAPRLLIYDALTRATGIPDRFSGSGSGTDFTLTISRLEPEDFALYYCQQYGSSFLTFGGGTKVDIK
# notes: full-length IgG from yeast
# B10: ADI-18891 (antibody, V domains shown)
# VH: B9 VH with V5Q, Q6E, R13K, T28A, R30S, G31S, H33A, L37V
# VL: B9 VL with T2I, T3V, V105L, D106E
# notes: full-length IgG from yeast; also called Antibody Number 246; Ab # 246
# B11: ADI-18919 (antibody, V domains shown)
# VH: QVQLQESGPGLEKPSQTLSLTCTVSRGSIRIGGYFWSWIRQHPGKGLEWLGYISNDGATDYNPSLRSRLAISADTSKNQFSLTLRSVTAADTAIYYCARTSYAGRMLDRWGQGILVTVSS
# VL: DIRVTQSPVSLPVTPGEPASISCRSSQSLLHSNGNNYLDWYLQKPGQSPQLLIYMGSYRASGVPDRFSGSGSGTDFTLKISRVEAEDVGVYYCMQGLQIPWTFGQGTKLEIK
# notes: full-length IgG from yeast
# B12: ADI-18915 (antibody, V domains shown)
# VH: QVQLVQSGGGLVKPGGSLRLSCAASGFTFSKAWMNWVRQAPGKGLEWVGRIRSKTDGGTADYAAPVKGRFTMSRDDSKNTLYLQMNSLKTEDTAVYYCATDSRRLYDSRGFYSSAFDVWGQGTTVTVSS
# VL: QSVLTQPPSVSGAPGQRVTISCTGSSSNIGAGYDVHWYQHLPGTAPKVLIYGNNNRPSGVPDRFSGSKSGTSASLAITGLQAEDEADYYCQSYDDSLTGWVFGGGTKVTVL
# notes: full-length IgG from yeast; also called Antibody Number 269; Ab # 269
# B13: ADI-18902 (antibody, V domains shown)
# VH: QVQLQESGPGLVKPSETLSLTCTVSGGSISGYYWSWIRQPPGRGLEWIGFIYYSGSTSYDSSLKSRVTISVDTSKNQFSLNLSSVTAADTAVYYCARSTWDYGDHFPFDYWGQGTLVTVSS
# VL: SYELTQPPSVSVAPGKTARITCGGNNIGIKDVHWYQLRPGQAPVLVISYDSDRPSGIPERFSGSNSGNTATLTISRVEAGDEADYFCQVWDSSPDHPYVFGTGTKLTVL
# notes: full-length IgG from yeast
# B14: ADI-18893 (antibody, V domains shown)
# VH: EVQLLESGGGLVKPGGSLRLSCVASGFTFSSYNINWVRQAPGKGLEWVSSISGGSNYIDYADSVKGRFTISRDNAKNSLYLQMNNLRAEDTAVYYCARLGYGGNPELDYWGQGTLVTVSS
# VL: QSVLTQPPSVSGAPGQRVTISCTGSSSNIGAGYDVHWYQQRPGTAPKLLIYANNNRPSGVPDRFSGSKSGTSASLAITGLQAEDEADYYCQSYDLSLSSSRVFGGGTKLTVL
# notes: full-length IgG from yeast; also called Antibody Number 248; Ab # 248
# B15: ADI-18923 (antibody, V domains shown)
# VH: EVQLLESGGGLVKPGGSLRLSCAASGFTFSSYSMNWVRQAPGKGLEWVSSISSSSSYIYYADSVKGRFTISRDNAKNSLYLQMNSLRAEDTAVYYCARDWPNSSSSPNWFDPWGQGTLVTVSS
# VL: B14 VL with R41L, A52G, N54S, L95S, S99G, S100F, R101Y, G105T
# notes: full-length IgG from yeast
# B16: ADI-18900 (antibody, V domains shown)
# VH: EVQLLESGGALVEPGGSLRLSCAASGFSFNTYSMNWVRQGPGKGLEWVATISTSTAGSYYADSVRGRFTISRDNSKNTLYLQMNSLRVEDTAVYYCARDQEVELIDDAFDFWGRGTMVTVSS
# VL: DIVMTQTHSSLSASVGDRVTITCRASQSISIWVAWYQQKPGKAPNLLIYKASSLQSGVPSRFSGSGSGTEFTLTISSLQPDDSATYYCQQYYTYYSFGQGTKLEIK
# notes: full-length IgG from yeast
# B17: ADI-18908 (antibody, V domains shown)
# VH: QVQLVESGGGLVKPGGSLRLSCAASGFTFSSFGMHWVRQAPGQGLEWVASITGGSSYINYADSVKGRFTISRDNAKKSLSLQMKNLRAEDTAEYYCVRGVLPGGTGGGWFDSWGQGTLVTVSS
# VL: QSVLTQPPSMSGAPGQRVTISCTGTSSNIGAGYDVQWYQQFPGTAPKLLISGNNNRPSGVPDRFSGSKSGASASLAITGLQAEDEADYYCQSYDYSLNWVFGGGTKLTVL
# notes: full-length IgG from yeast
# B18: ADI-18917 (antibody, V domains shown)
# VH: B17 VH with Q1E, G104D
# VL: B17 VL
# notes: full-length IgG from yeast; also called Antibody Number 271; Ab # 271
# B19: ADI-18920 (antibody, V domains shown)
# VH: EVQLLESGGGVVQPGRSLRLSCAASGFTFSSYAMHWVRQTPDKGLEWVALISDDGRNEYYADSVQGRFTISRDKSKNTLHLEMNSLRAEDTAVYYCAKVRNEAWELLGNDDALDVWGQGTMVTVSS
# VL: QSVLTQPPSVSAAPGQKVTISCSGTSFNIGSNYVSWYQLLPGTAPKLLIFDNYKRPSGIPDRFSGSWSGTSATLAISGLQTGDEAEYFCGTWDTSLRAGVFGGGTKLTVL
# notes: full-length IgG from yeast; also called Antibody Number 274; Ab # 274
# Molecular target: RSV F protein of subtype A (strain A2) on recombinant mKate-RSV virus (Respiratory syncytial virus subtype A …, UniProt P03420 26-574)
# Assay: cell-based or functional assay
row,Binder,Neut IC50 (µg/ml) subtype A [µg/mL]
1,B1,0.108
2,B2,0.04
3,B3,0.018
4,B4,0.024
5,B5,0.41
6,B6,0.03
7,B7,< 0.01
8,B8,< 0.01
9,B9,0.041
10,B10,0.012
11,B11,0.123
12,B12,1.2
13,B13,0.024
14,B14,0.123
15,B15,0.078
16,B16,0.035
17,B17,0.018
18,B18,0.024
19,B19,0.041

# Molecular target: RSV F protein of subtype B (18537) on recombinant mKate-RSV virus (Respiratory syncytial virus subtype B …, UniProt P13843 26-574)
# Assay: cell-based or functional assay
row,Binder,Neut IC50 (µg/ml) subtype B [µg/mL]
1,B1,0.117
2,B2,0.019
3,B3,0.117
4,B4,0.061
5,B5,0.13
6,B6,0.097
7,B7,< 0.01
8,B8,< 0.01
9,B9,0.041
10,B10,0.026
11,B11,0.261
12,B12,0.021
13,B13,0.15
14,B14,0.182
15,B15,0.147
16,B16,0.059
17,B17,0.095
18,B18,0.091
19,B19,0.049

# Molecular target: T1, RSV F subtype A, furin-cleaved ectodomain stabilized in the prefusion conformation (DS-Cav1) (Respiratory syncytial virus subtype A, UniProt P03420 26-524)
# T1 construct: extracellular domain; Trimeric soluble antigen; also called Prefusion subtype A
# Assay: BLI, IgG on AHQ sensor, 100 nM antigen
row,Binder,Kd [nM]
1,B1,0.786
2,B2,0.554
3,B3,0.217
4,B4,0.258
5,B5,0.303
6,B6,0.305
7,B7,0.568
8,B8,0.585
9,B9,0.489
10,B10,0.534
11,B11,0.202
12,B12,28.1
13,B13,0.107
14,B14,0.245
15,B15,0.517
16,B16,1.19
17,B17,0.302
18,B18,0.356
19,B19,0.678

# Molecular target: T2, RSV F subtype B, furin-cleaved ectodomain stabilized in the prefusion conformation (DS-Cav1) (Respiratory syncytial virus subtype B)
# T2 construct: extracellular domain; Trimeric soluble antigen; also called Prefusion subtype B
# Assay: BLI, IgG on AHQ sensor, 100 nM antigen
row,Binder,Kd [nM]
1,B1,0.966
2,B2,0.587
3,B3,0.253
4,B4,0.286
5,B5,0.383
6,B6,0.325
7,B7,0.471
8,B8,0.465
9,B9,0.458
10,B10,0.513
11,B11,0.163
12,B12,0.421
13,B13,0.101
14,B14,0.278
15,B15,1.79
16,B16,0.331
17,B17,0.352
18,B18,0.332
19,B19,0.0977
